The text below walks through data of patent US20140073575.

The target in series [1] is (GPP)7 acceptor peptide.
Series [2] concerns the target T1, (GDK)4 acceptor peptide.
T1 chain: GDKGDKGDKGDK

Series [3] concerns the target T2, His10-tagged human collagen III construct, P02461.
T2 chain: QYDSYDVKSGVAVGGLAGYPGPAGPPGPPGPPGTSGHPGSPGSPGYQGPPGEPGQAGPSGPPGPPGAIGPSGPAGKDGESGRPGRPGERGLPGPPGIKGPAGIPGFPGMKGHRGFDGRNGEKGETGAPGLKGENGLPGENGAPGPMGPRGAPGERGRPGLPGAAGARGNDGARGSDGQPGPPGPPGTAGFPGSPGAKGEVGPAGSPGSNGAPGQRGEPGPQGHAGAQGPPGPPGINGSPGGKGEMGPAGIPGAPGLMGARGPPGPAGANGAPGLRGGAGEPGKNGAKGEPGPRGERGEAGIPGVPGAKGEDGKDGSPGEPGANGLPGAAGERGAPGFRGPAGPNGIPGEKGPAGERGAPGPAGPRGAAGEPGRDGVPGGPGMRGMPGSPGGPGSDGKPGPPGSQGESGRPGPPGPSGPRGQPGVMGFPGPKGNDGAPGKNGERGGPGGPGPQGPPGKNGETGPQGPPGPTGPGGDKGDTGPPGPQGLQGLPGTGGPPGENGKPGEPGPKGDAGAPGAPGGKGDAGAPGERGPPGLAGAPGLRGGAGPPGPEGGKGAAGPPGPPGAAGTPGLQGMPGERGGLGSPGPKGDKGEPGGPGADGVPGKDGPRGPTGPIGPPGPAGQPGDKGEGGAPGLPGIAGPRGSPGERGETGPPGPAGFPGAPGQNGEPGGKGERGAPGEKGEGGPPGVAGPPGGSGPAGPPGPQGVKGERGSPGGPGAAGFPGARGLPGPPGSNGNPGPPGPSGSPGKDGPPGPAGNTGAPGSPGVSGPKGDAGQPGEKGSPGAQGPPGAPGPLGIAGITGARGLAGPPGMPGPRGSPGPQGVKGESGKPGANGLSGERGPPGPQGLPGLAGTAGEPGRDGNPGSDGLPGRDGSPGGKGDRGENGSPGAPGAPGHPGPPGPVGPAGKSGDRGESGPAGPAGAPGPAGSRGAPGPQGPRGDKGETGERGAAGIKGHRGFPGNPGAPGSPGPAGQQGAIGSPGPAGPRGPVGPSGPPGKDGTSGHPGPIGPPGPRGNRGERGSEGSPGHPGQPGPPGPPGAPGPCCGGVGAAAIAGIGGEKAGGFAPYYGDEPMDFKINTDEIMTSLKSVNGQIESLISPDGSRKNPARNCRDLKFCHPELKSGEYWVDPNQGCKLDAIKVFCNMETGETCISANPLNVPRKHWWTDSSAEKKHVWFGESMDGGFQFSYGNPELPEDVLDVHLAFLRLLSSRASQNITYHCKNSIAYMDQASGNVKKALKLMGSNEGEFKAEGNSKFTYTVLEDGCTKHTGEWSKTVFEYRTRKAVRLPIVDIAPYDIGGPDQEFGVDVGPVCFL

The target in series [4] is T3, MimiD peptide GTKGETGLKGII
T3 chain: GTKGETGLKGII

B1: Mimivirus prolyl hydroxylase L593_long (protein)
chain: MKTVTIITIIVVIIVVILIIMVLSKSCVSHFRNVGSLNSRDVNLKDDFSYANIDDPYNKPFVLNNLINPTKCQEIMQFANGKLFDSQVLSGTDKNIRNSQQMWISKNNPMVKPIFENICRQFNVPFDNAEDLQVVRYLPNQYYNEHHDSCCDSSKQCSEFIERGGQRILTVLIYLNNEFSDGHTYFPNLNQKFKPKTGDALVFYPLANNSNKCHPYSLHAGMPVTSGEKWIANLWFRERKFS
B1: in series [1], the “prolyl hydroxylase activity ([14C]-CO2 production from [14C]-2-oxoglutarate)” value was “Both short and long forms of L593 are active as prolyl hydroxylases, but the short form has a higher specific activity than the long form”.

B2: Mimivirus lysyl hydroxylase L230 (protein)
chain: MISRTYVINLARRPDKKDRILAEFLKLKEKGVELNCVIFEAVDGNNPEHLSRFNFKIPNWTDLNSGKPMTNGEVGCALSHWSVWKDVVDCVENGTLDKDCRILVLEDDVVFLDNFMERYQTYTSEITYNCDLLYLHRKPLNPYTETKISTHIVKPNKSYWACAYVITYQCAKKFMNANYLENLIPSDEFIPIMHGCNVYGFEKLFSNCEKIDCYAVQPSLVKLTSNAFNDSETFHSGSYVPSNKFNFDTDKQFRIVYIGPTKGNSFHRFTEYCKLYLLPYKVIDEKETNDFVSLRSELQSLSEQDLNTTLMLVVSVNHNDFCNTIPCAPTNEFIDKYKQLTTDTNSIVSAVQNGTNKTMFIGWANKISEFINHYHQKLTESNAETDINLANLLLISSISSDFNCVVEDVEGNLFQLINEESDIVFSTTTSRVNNKLGKTPSVLYANSDSSVIVLNKVENYTGYGWNEYYGYHVYPVKFDVLPKIYLSIRIVKNANVTKIAETLDYPKELITVSISRSEHDSFYQADIQKFLLSGADYYFYISGDCIITRPTILKELLELNKDFVGPLMRKGTESWTNYWGDIDPSNGYYKRSFDYFDIIGRDRVGCWNVPYLASVYLIKKSVIEQVPNLFTENSHMWNGSNIDMRLCHNLRKNNVFMYLSNLRPYGHIDDSINLEVLSGVPTEVTLYDLPTRKEEWEKKYLHPEFLSHLQNFKDFDYTEICNDVYSFPLFTPAFCKEVIEVMDKANLWSKGGDSYFDPRIGGVESYPTQDTQLYEVGLDKQWHYVVFNYVAPFVRHLYNNYKTKDINLAFVVKYDMERQSELAPHHDSSTYTLNIALNEYGKEYTAGGCEFIRHKFIWQGQKVGYATIHAGKLLAYHRALPITSGKRYILVSFVN
Regarding B2, the lysyl hydroxylase activity entry was “The lysyl hydroxylase activity was highest towards the (GDK)4 peptide and the GTKGETGLKGII peptide derived from a Mimivirus collagen sequence” in series [2]; “The lysyl hydroxylase activity was highest towards the (GDK)4 peptide and the GTKGETGLKGII peptide derived from a Mimivirus collagen sequence” in series [4]. Moreover, the “hydroxylysine in collagen III after co-expression in E. coli (amino acid analysis by HPLC)” value in series [3] is listed as “A peak corresponding to hydroxylysine was detected in collagen III co-expressed with L230 but not in collagen expressed alone in E. coli”.

B3: Mimivirus prolyl hydroxylase L593_short (protein)
chain: MVLSKSCVSHFRNVGSLNSRDVNLKDDFSYANIDDPYNKPFVLNNLINPTKCQEIMQFANGKLFDSQVLSGTDKNIRNSQQMWISKNNPMVKPIFENICRQFNVPFDNAEDLQVVRYLPNQYYNEHHDSCCDSSKQCSEFIERGGQRILTVLIYLNNEFSDGHTYFPNLNQKFKPKTGDALVFYPLANNSNKCHPYSLHAGMPVTSGEKWIANLWFRERKFS
On to B3, for which the “prolyl hydroxylase activity ([14C]-CO2 production from [14C]-2-oxoglutarate)” value in series [1] is “the short form of L593 yielded prolyl hydroxylase activity in the range of 600 pmol/min/mg protein”. Moreover, the “hydroxyproline in collagen III after co-expression in E. coli (amino acid analysis by HPLC, tandem mass spectrometry of tryptic peptides)” value in series [3] is given as “the amino acid hydroxyproline was clearly detected in the human collagen III extract when the Mimivirus L593 protein was co-expressed”.
